This is an account of results in the Immune Epitope Database (IEDB).

The target of assay [1] is HLA-B*51:01. In words: IEDB peptide-MHC binding, purified MHC/competitive/fluorescence; filed as Kd, often an IC50 or EC50 that approximates it; ≥ and ≤ were set here for values at or beyond the usual limits of such assays. The conditions noted are these: source organism: Yersinia mollaretii ATCC 43969.
Assay [2] deals with HLA-A*02:03. Described as above.
The target in assay [3] is HLA-A*02:12. The assay is described as above.
Assay [4] concerns the target HLA-B*57:01. The assay is described as above. The conditions noted are these: source organism: Yersinia mollaretii ATCC 43969.
Assay [5] has as its target HLA-A*68:02. The assay is described as above. To be noted: source organism: Yersinia mollaretii ATCC 43969.
Assay [6] deals with HLA-B*46:01. Described as above. To be noted: source organism: Yersinia mollaretii ATCC 43969.
Assay [7] deals with HLA-A*02:01. The description is as above.
In assay [8] the target is HLA-B*15:01. Described as above. The conditions noted are these: source organism: Yersinia mollaretii ATCC 43969.
Assay [9] deals with HLA-B*27:03. The description is as above. The conditions noted are these: source organism: Yersinia mollaretii ATCC 43969.
The target in assay [10] is HLA-A*29:02. The description is as above. The conditions noted are these: source organism: Yersinia mollaretii ATCC 43969.
Assay [11] deals with HLA-A*02:19. The description is as above.
Assay [12] concerns the target HLA-A*02:11. The assay is described as above.
Assay [13] deals with HLA-A*03:01. The assay is described as above. The conditions noted are these: source organism: Yersinia mollaretii ATCC 43969.
Assay [14] concerns the target HLA-B*18:01. The assay is described as above. The conditions noted are these: source organism: Yersinia mollaretii ATCC 43969.
The target of assay [15] is HLA-B*39:01. The assay is described as above. The conditions noted are these: source organism: Yersinia mollaretii ATCC 43969.
The target of assay [16] is HLA-A*24:03. Described as above. The conditions noted are these: source organism: Yersinia mollaretii ATCC 43969.
The target of assay [17] is HLA-A*69:01. Described as above.
In assay [18] the target is HLA-A*26:01. The assay is described as above. The conditions noted are these: source organism: Yersinia mollaretii ATCC 43969.
Assay [19] concerns the target HLA-B*15:17. The assay is described as above. The conditions noted are these: source organism: Yersinia mollaretii ATCC 43969.
The target of assay [20] is HLA-A*02:16. The assay is described as above.
Assay [21] has as its target HLA-A*02:06. The assay is described as above.
Assay [22] concerns the target HLA-A*30:01. In words: IEDB peptide-MHC binding, purified MHC/direct/fluorescence; filed as Kd, often an IC50 or EC50 that approximates it; ≥ and ≤ were set here for values at or beyond the usual limits of such assays.
In assay [23] the target is HLA-A*02:01. The assay is described as above.
The target of assay [24] is HLA-B*07:02. The assay is described as above. To be noted: source organism: Vibrio cholerae.
Assay [25] concerns the target HLA-B*15:01. The description is as above.
The target in assay [26] is HLA-A*01:01. The description is as above.
Assay [27] concerns the target HLA-A*11:01. The assay is described as above.
The target of assay [28] is HLA-A*03:01. Described as above.
In assay [29] the target is HLA-B*44:02. Described as above.
The target in assay [30] is HLA-B*27:05. The description is as above.
In assay [31] the target is HLA-A*69:01. Described as above.
Assay [32] addresses HLA-B*40:01. The assay is described as above.
Assay [33] concerns the target HLA-B*08:01. The assay is described as above.
Assay [34] addresses HLA-B*35:01. The description is as above.
Assay [35] has as its target HLA-A*26:01. The description is as above.
For assay [36], the target named is HLA-A*31:01. Described as above. To be noted: source organism: Vibrio cholerae.
The target in assay [37] is HLA-B*58:01. The assay is described as above.
The target in assay [38] is HLA-B*58:01. In words: IEDB peptide-MHC binding, purified MHC/competitive/fluorescence; filed as Kd, often an IC50 or EC50 that approximates it; ≥ and ≤ were set here for values at or beyond the usual limits of such assays. The conditions noted are these: source organism: Mycobacterium tuberculosis C.
Assay [39] deals with HLA-A*24:03. In words: IEDB peptide-MHC binding, purified MHC/direct/fluorescence; filed as Kd, often an IC50 or EC50 that approximates it; ≥ and ≤ were set here for values at or beyond the usual limits of such assays. To be noted: source organism: Giardia lamblia ATCC 50803.
For assay [40], the target named is HLA-C*05:01. The assay is described as above. To be noted: source organism: Mycobacterium tuberculosis variant bovis BCG str. Pasteur 1173P2.
Assay [41] addresses HLA-C*03:03. The assay is described as above. To be noted: source organism: Mycobacterium tuberculosis variant bovis BCG str. Pasteur 1173P2.
Where [42] appears, read: source organism: Yersinia mollaretii ATCC 43969.
The mark [43] stands for this setting: source organism: Human immunodeficiency virus 1.
Setting [44] is: source organism: Vibrio cholerae.
The mark [45] stands for this setting: source organism: Giardia lamblia ATCC 50803.
The mark [46] stands for this setting: source organism: Mycobacterium tuberculosis variant bovis BCG str. Pasteur 1173P2.

In general, Kd refers to a measure of binding affinity in units of concentration. A lower Kd goes with higher affinity. With DEQEFFYSQ, the Kd in assay [1], in assay [2] (setting [42]), in assay [3] (setting [42]), in [4], in [5] and in assay [6] was not below 20 µM in each case. In addition, the Kd in assay [7] (setting [42]), in [8], in assay [9], in assay [10], in [11] (setting [42]) and in assay [12] (setting [42]) was not below 20 µM in each case. Also, the Kd is not below 20 µM in [13]; 0.0003 µM in assay [14]; not below 20 µM in assay [15]; not below 20 µM in assay [16]; not below 20 µM in assay [17] (setting [42]); not below 20 µM in assay [18]. For the same sequence, the Kd in [19] and in assay [20] (setting [42]) was not below 20 µM throughout.

For FLGKIWSS, the Kd in [2] (setting [43]) is 0.00138 µM; in assay [3] (setting [43]), 0.0005 µM; in assay [7] (setting [43]), 0.0075 µM; in [21] (setting [43]), not above 0.0001 µM; in [11] (setting [43]), 0.00233 µM; in assay [12] (setting [43]) it was not above 0.0001 µM. The results for the Kd in assay [17] (setting [43]) and in assay [20] (setting [43]) were not below 5 µM and not above 0.0001 µM, respectively.

For GEHWLGRIW, the Kd in assay [22] (setting [44]), in assay [23] (setting [44]), in assay [24], in assay [25] (setting [44]), in assay [26] (setting [44]) and in assay [27] (setting [44]) was not below 20 µM in each case. The Kd in [28] (setting [44]) was not below 20 µM; in assay [29] (setting [44]) it was 3.83 µM; in assay [30] (setting [44]) it was 13.1 µM; in assay [31] (setting [44]), not below 20 µM; in [32] (setting [44]), 0.858 µM; in assay [33] (setting [44]), not below 20 µM. In addition, the Kd in assay [34] (setting [44]) was not below 10 µM; in [35] (setting [44]), not below 20 µM; in assay [36], not below 20 µM; in [37] (setting [44]), 19.4 µM.

For the sequence RSFRIHILF, the Kd in assay [38] is 4.4 µM; in assay [25] (source organism: Mycobacterium tuberculosis) it was not below 10 µM.

On to SYPPPPASF, for which the Kd is not below 44.4 µM in assay [22] (setting [45]); not below 20 µM in [23] (setting [45]); not below 10 µM in [25] (setting [45]); not below 20 µM in [26] (setting [45]); not below 20 µM in [27] (setting [45]); not below 20 µM in assay [28] (setting [45]). Besides, the Kd is not below 20 µM in assay [29] (setting [45]); not below 20 µM in assay [30] (setting [45]); 0.00084 µM in assay [39]; not below 20 µM in assay [31] (setting [45]); not below 20 µM in [32] (setting [45]); not below 20 µM in assay [33] (setting [45]). Moreover, the Kd in [34] (setting [45]) is 1.59 µM; in assay [35] (setting [45]), not below 20 µM; in assay [37] (setting [45]), not below 20 µM.

For YLAEGHACL, the Kd in assay [2] (setting [46]) was not above 0.001 µM; in assay [3] (setting [46]), 0.0026 µM; in [21] (setting [46]), not above 0.001 µM; in assay [11] (setting [46]), 0.0033 µM; in assay [12] (setting [46]) it was not above 0.001 µM; in assay [17] (setting [46]), 0.378 µM. The Kd in [20] (setting [46]) was not above 0.001 µM; in assay [40], 0.151 µM; in assay [41], 0.002 µM.
